The source of these data is US20220144932A1.

Assay [1] has as its target Recombinant FAM19A5 rabbit Fc fusion protein (human; rabbit) (UniProt Q7Z5A7). The assay is described as follows: flow cytometry, blocking: FAM19A5-rFc (1 µM) with scFv-Cκ (5 µM) on mouse primary glial cells; blocked: binding of FAM19A5-rFc to the cells.
Assay [2] has the same target. The assay is described as follows: flow cytometry, blocking: FAM19A5-rFc (1 µM) with scFv-Cκ (5 µM) on human glioblastoma cell line U87MG; blocked: binding of FAM19A5-rFc to the cells. For orientation: Flow cytometry measures light scatter and fluorescence of single cells or particles in a stream.

B1: 2-13 anti-FAM19A5 scFv human Cκ fusion protein (scFv, not shown: a dimerising Fc or GST)
scFv: ALTQPSSVSANPGETVKITCSGGSYSYGWFQQKSPGSALVTVIYWDDERPSDIPSRFSGALSGSTNTLTITGVQADDEAVYFCGTEDISGTAGVFGAGTTLTVLGQSSRSSGGGGSSGGGGSAVTLDESGGGLQTPGGALSLVCKASGFTFSSHGMFWVRQTPGKGLEYVAEITNDGSGTNYGSAVKGRATISRDNGQSTVRLQLNNLRAEDTGTYFCARSTYECPGGFSCWGDTGQIDAWGHGTEVIVSS
B1: the percent reduction of MFI in assay [1] turned out to be 88.9%; in assay [2] it was 69.6%.
